Patent US12607633B2 (priority 2016, dated 2026)
Entries after “also recorded” stand apart in the source; their conditions may differ.

How the values were obtained:
ZIKV ns2B-ns3 protease = ZIKV ns2B-ns3 protease (Zika virus, UniProt A0A024B7W1, C1582S/C1645S/R1467A/R1531G); type: biochemical
[1] = molecular target: EEEV nsP2 cysteine protease (Eastern equine encephalitis virus, UniProt Q4QXJ8); type: biochemical
[2] = molecular target: T1, VEEV nsP2 cysteine protease (Venezuelan equine encephalitis virus, UniProt P27282)
[3] = molecular target: T1, VEEV nsP2 cysteine protease; conditions: pH 7
[4] = molecular target: WEEV nsP2 cysteine protease (Western equine encephalitis virus, UniProt P13896)
[5] = molecular target: CHIKV nsP2 cysteine protease (Chikungunya virus, UniProt Q8JUX6, A1139V/C1177Y/S1178N)
[6] = molecular target: VEEV nsP2 protease cleavage of TRIM14 (Venezuelan equine encephalitis virus, UniProt P27282); type: cell-based
VEEV = type: cell-based, Venezuelan equine encephalitis virus (VEEV)

VEEV nsP2 protease cleavage of TRIM14, sequence (P27282 536-1329 limits assumed): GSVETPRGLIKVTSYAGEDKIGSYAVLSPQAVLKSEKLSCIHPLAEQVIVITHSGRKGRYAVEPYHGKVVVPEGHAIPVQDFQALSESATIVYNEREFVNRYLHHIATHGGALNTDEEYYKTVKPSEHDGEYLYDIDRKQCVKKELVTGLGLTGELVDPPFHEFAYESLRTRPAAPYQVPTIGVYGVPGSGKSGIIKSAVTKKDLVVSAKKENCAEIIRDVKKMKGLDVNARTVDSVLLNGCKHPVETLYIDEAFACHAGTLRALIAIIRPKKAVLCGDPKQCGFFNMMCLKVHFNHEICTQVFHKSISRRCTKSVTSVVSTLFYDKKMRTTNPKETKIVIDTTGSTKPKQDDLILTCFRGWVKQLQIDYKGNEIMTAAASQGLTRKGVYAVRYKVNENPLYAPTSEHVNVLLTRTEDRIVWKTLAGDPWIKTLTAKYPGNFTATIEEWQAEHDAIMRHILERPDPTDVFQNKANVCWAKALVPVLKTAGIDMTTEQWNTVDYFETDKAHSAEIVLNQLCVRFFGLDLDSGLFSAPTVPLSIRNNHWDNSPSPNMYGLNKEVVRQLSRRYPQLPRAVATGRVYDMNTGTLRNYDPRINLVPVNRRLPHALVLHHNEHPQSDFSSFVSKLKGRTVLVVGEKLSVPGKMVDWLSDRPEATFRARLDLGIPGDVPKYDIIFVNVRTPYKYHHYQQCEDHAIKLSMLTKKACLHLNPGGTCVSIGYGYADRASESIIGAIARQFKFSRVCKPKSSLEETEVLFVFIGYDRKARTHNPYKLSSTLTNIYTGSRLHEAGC

## CFP-SFRP1-YFP: CFP-YFP substrate, 25-residue human SFRP1 sequence MGIGRSEGGRR↓GAALGVLLALGAAL ({CFP}-MGIGRSEGGRRGAALGVLLALGAAL-{YFP})
ZIKV ns2B-ns3 protease
  Proteases cutting the substrate: ZIKV ns2B-ns3 protease: cleavage; also recorded: ZIKV ns2B-ns3 protease

## CFP-NT5M-YFP: CFP-YFP substrate, 34-residue human NT5M sequence MIRLGGWCARRLCSAAVPAGRR↓GAAGGLGLAGGR ({CFP}-MIRLGGWCARRLCSAAVPAGRRGAAGGLGLAGGR-{YFP}; cysteine pairing not given here)
ZIKV ns2B-ns3 protease
  Proteases cutting the substrate: ZIKV ns2B-ns3 protease: cleavage; also recorded: ZIKV ns2B-ns3 protease

## CFP-SFRP2-YFP: Uncleavable control CFP-YFP substrate, 34 residues MLQGPGSLLLLFLASHCCLGSARGLFLFGQPDFS ({CFP}-MLQGPGSLLLLFLASHCCLGSARGLFLFGQPDFS-{YFP}; cysteine pairing not given here)
ZIKV ns2B-ns3 protease
  Proteases cutting the substrate: ZIKV ns2B-ns3 protease: Control, not cleaved by ZIKV

## CFP-TRIM14-YFP (SEQ ID NO: 4): CFP-YFP FRET substrate, 25 residues of human TRIM14 DCFATGRHYWEVDVQEAGA↓GWWVGA (DCFATGRHYWEVDVQEAGAGWWVGA)
[1]
  Extent of cleavage of TRIM14 substrate by EEEV nsP2 protease (SDS-PAGE): did not show significant amounts of cleavage
[2]
  Proteases cutting the substrate: VEEV nsP2 cysteine protease: VEEV nsP2 cysteine protease
[3]
  Km: 21 ± 2 µM
  Vmax: 0.056 ± 0.002 U/mg
[4]
  Extent of cleavage of TRIM14 substrate by WEEV nsP2 protease (SDS-PAGE): did not show significant amounts of cleavage
[5]
  Extent of cleavage of TRIM14 substrate by CHIKV nsP2 protease (SDS-PAGE): did not show evidence of significant cleavage

## CCCNC(=O)[C@H]1O[C@@H]1C(=O)N[C@H](C(=O)N1CCC[C@H]1C(=O)OC)[C@@H](C)CC [CA074 methyl ester]
[6]
  TRIM14 cleavage product (CP) in infected cell lysates (immunoblot): halted; also recorded: absent; also recorded: no longer present
VEEV
  VEEV titers / viral replication (plaque assays): halted viral replication; also recorded: decreased significantly

## CFP-SFRP4-YFP: Uncleavable control CFP-YFP substrate, 34 residues MFLSILVALCLWLHLALGVRGAPCEAVRIPMCRH ({CFP}-MFLSILVALCLWLHLALGVRGAPCEAVRIPMCRH-{YFP}; cysteine pairing not given here)
ZIKV ns2B-ns3 protease
  Proteases cutting the substrate: ZIKV ns2B-ns3 protease: Control, not cleaved by ZIKV

## CFP-FOXG1-YFP: CFP-YFP substrate, 21-residue human FOXG1 sequence RSTTSRAKLAFKR↓GARLTSTG ({CFP}-RSTTSRAKLAFKRGARLTSTG-{YFP})
ZIKV ns2B-ns3 protease
  Proteases cutting the substrate: ZIKV ns2B-ns3 protease: cleavage; also recorded: ZIKV ns2B-ns3 protease
